For 2 molecules, binding activity (ELISA A450) results are on record in patent US20130158238A1 (THERACLONE SCIENCES, published 2013).

What all share (experiment): ELISA, peptide 2 µg/mL, mAb 5 µg/mL
The target in assay [1] is NM10.
In assay [2] the target is NM11.
In assay [3] the target is NM16.
Assay [4] deals with NM9.

B1: 8i10 (antibody, V domains shown)
VH: QVQLQESGPGLVKPSETLSLTCTVSGSSISNYYWSWIRQSPGKGLEWIGFIYYGGNTKYNPSLKSRVTISQDTSKSQVSLTMSSVTAAESAVYFCARASCSGGYCILDYWGQGTLVTVS
VL: DIQMTQSPSSLSASVGDRVTITCRASQNIYKYLNWYQQRPGKAPKGLISAASGLQSGVPSRFSGSGSGTDFTLTITSLQPEDFATYYCQQSYSPPLTFGGGTRVEIK
As for B1, the binding activity (ELISA A450) was 0.1 in assay [1], 0.13 in assay [2], 0.29 in assay [3] and 0.12 in assay [4].

B2: 23K12 (antibody, V domains shown)
VH: EVQLVESGGGLVQPGGSLRISCAASGFTVSSNYMSWVRQAPGKGLEWVSVIYSGGSTYYADSVKGRFSFSRDNSKNTVFLQMNSLRAEDTAVYYCARCLSRMRGYGLDVWGQGTTVTVS
VL: DIQMTQSPSSLSASVGDRVTITCRTSQSISSYLNWYQQKPGKAPKLLIYAASSLQSGVPSRFSGSGSGTDFTLTISGLQPEDFATYYCQQSYSMPAFGQGTKLEIK
In the case of B2, the binding activity (ELISA A450) came out at 0.24 in assay [1], 0.3 in assay [2], 0.62 in assay [3] and 0.3 in assay [4].
